{
  "source": "paper PMC9122904",
  "about": "“Insights into the client protein release mechanism of the ATP-independent chaperone Spy” (Nature Communications, 2022)",
  "assay_in_all_cases": "BLI; Octet RED96; client biotinylated and loaded on streptavidin sensors; Spy or Spy variant in solution at 0.25, 0.5, 1, 1.5 and 2 μM; 40 mM HEPES, 150 mM NaCl, pH 7.5; Kd calculated as koff/kon",
  "conditions_in_all_cases": "both partners purified",
  "key": {"Spy_(29-124) R43D [1]": {"target": "T1, Spy_(29-124) R43D (UniProt P77754 52-147, R43D)", "T1 construct": "source: E. coli BL21 (DE3), purified (Ni-NTA, cation exchange, SEC); not shown: His6, N-terminal, cleaved; SUMO, N-terminal, cleaved", "T1 sequence (looked up)": "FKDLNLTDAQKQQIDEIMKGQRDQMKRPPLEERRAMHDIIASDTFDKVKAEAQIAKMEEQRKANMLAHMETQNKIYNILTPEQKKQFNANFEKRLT"}, "Spy_(29-124) H96D [2]": {"target": "T2, Spy_(29-124) H96D (UniProt P77754 52-147, H96D)", "T2 construct": "source: E. coli BL21 (DE3), purified (Ni-NTA, cation exchange, SEC); not shown: His6, N-terminal, cleaved; SUMO, N-terminal, cleaved", "T2 sequence (looked up)": "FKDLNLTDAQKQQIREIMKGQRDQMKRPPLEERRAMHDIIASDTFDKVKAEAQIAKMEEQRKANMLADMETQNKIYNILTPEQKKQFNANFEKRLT"}, "Spy_(29-124) R50D [3]": {"target": "T3, Spy_(29-124) R50D (UniProt P77754 52-147, R50D)", "T3 construct": "source: E. coli BL21 (DE3), purified (Ni-NTA, cation exchange, SEC); not shown: His6, N-terminal, cleaved; SUMO, N-terminal, cleaved", "T3 sequence (looked up)": "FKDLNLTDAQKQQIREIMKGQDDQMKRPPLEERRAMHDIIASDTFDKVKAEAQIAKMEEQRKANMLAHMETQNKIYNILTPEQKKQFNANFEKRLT"}, "Spy_(29-124) R61D R62D": {"target": "T4, Spy_(29-124) R61D R62D (UniProt P77754 52-147, R61D | R62D)", "T4 construct": "source: E. coli BL21 (DE3), purified (Ni-NTA, cation exchange, SEC); not shown: His6, N-terminal, cleaved; SUMO, N-terminal, cleaved", "T4 sequence (looked up)": "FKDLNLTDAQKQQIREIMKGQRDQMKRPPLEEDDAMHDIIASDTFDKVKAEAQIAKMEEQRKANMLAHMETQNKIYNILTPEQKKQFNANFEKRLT"}, "Spy_(29-124) K54D R55D": {"target": "T5, Spy_(29-124) K54D R55D (UniProt P77754 52-147, K54D | R55D)", "T5 construct": "source: E. coli BL21 (DE3), purified (Ni-NTA, cation exchange, SEC); not shown: His6, N-terminal, cleaved; SUMO, N-terminal, cleaved", "T5 sequence (looked up)": "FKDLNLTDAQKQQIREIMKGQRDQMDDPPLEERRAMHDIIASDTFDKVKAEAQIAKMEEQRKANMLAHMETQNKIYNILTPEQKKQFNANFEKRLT"}, "Spy_(29-124) R89D [4]": {"target": "T6, Spy_(29-124) R89D (UniProt P77754 52-147, R89D)", "T6 construct": "source: E. coli BL21 (DE3), purified (Ni-NTA, cation exchange, SEC); not shown: His6, N-terminal, cleaved; SUMO, N-terminal, cleaved", "T6 sequence (looked up)": "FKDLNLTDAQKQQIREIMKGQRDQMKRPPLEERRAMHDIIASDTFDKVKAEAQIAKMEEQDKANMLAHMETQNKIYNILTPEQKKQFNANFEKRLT"}, "Spy_(29-124) K121D R122D": {"target": "T7, Spy_(29-124) K121D R122D (UniProt P77754 52-147, K121D | R122D)", "T7 construct": "source: E. coli BL21 (DE3), purified (Ni-NTA, cation exchange, SEC); not shown: His6, N-terminal, cleaved; SUMO, N-terminal, cleaved", "T7 sequence (looked up)": "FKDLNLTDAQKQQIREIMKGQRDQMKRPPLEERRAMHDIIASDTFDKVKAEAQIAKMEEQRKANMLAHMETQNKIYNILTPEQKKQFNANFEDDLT"}, "Spy_(29-124) K75D": {"target": "T8, Spy_(29-124) K75D (UniProt P77754 52-147, K75D)", "T8 construct": "source: E. coli BL21 (DE3), purified (Ni-NTA, cation exchange, SEC); not shown: His6, N-terminal, cleaved; SUMO, N-terminal, cleaved", "T8 sequence (looked up)": "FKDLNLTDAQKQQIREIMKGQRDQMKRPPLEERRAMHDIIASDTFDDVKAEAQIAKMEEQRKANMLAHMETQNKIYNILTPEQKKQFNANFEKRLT"}, "Spy_(29-124) R43D [5]": {"target": "T1, Spy_(29-124) R43D", "remark": "listed apart in the source"}, "Spy_(29-124) H96D [6]": {"target": "T2, Spy_(29-124) H96D", "remark": "listed apart in the source"}, "Spy_(29-124) R50D [7]": {"target": "T3, Spy_(29-124) R50D", "remark": "listed apart in the source"}, "Spy_(29-124) R89D [8]": {"target": "T6, Spy_(29-124) R89D", "remark": "listed apart in the source"}},
  "data": [
    {"binder": "Im7 H40W L53A I54A (natural protein, biotin (EZ-link NHS-biotin, 1:1 molar ratio of biotin to protein), Im7 (colicin E7 immunity protein) with H40W L53A I54A; Spy was made with an N-terminal His6-SUMO tag that was cleaved; also called Im7AAW; partially folded client; source: purified by a similar procedure to Spy) MELKNSISDYTEAEFVQLLKEIEKENVAATDDVLDVLLEWFVKITEHPDGTDAAYYPSDNRDDSPEGIVKEIKEWRAANGKPGFKQG", "values": [
      {"measurement": "kon", "setting": "Spy_(29-124) R43D [1]", "value": 196000, "unit": "M⁻¹ s⁻¹"},
      {"measurement": "kon", "setting": "Spy_(29-124) H96D [2]", "value": 185000, "unit": "M⁻¹ s⁻¹"},
      {"measurement": "kon", "setting": "Spy_(29-124) R50D [3]", "value": 178000, "unit": "M⁻¹ s⁻¹"},
      {"measurement": "kon", "setting": "Spy_(29-124) R61D R62D", "value": 74000, "unit": "M⁻¹ s⁻¹"},
      {"measurement": "kon", "setting": "Spy_(29-124) K54D R55D", "value": 126000, "unit": "M⁻¹ s⁻¹"},
      {"measurement": "kon", "setting": "Spy_(29-124) R89D [4]", "value": 48000, "unit": "M⁻¹ s⁻¹"},
      {"measurement": "kon", "setting": "Spy_(29-124) K121D R122D", "value": 188000, "unit": "M⁻¹ s⁻¹"},
      {"measurement": "kon", "setting": "Spy_(29-124) K75D", "value": 156000, "unit": "M⁻¹ s⁻¹"},
      {"measurement": "Kd", "setting": "Spy_(29-124) R43D [5]", "value": 3070, "unit": "nM"},
      {"measurement": "Kd", "setting": "Spy_(29-124) H96D [6]", "value": 1260, "unit": "nM"},
      {"measurement": "Kd", "setting": "Spy_(29-124) R50D [7]", "value": 2680, "unit": "nM"},
      {"measurement": "Kd", "setting": "Spy_(29-124) R89D [8]", "value": 2610, "unit": "nM"}
    ]}
  ]
}
